Results taken from patent publication US20240294590A1.

Columns and labels:
[1] = biological target: Histidine tagged PSMGFR peptide (MUC1* extra cellular domain peptide); assay: SPR, Biacore 3000, His-tagged PSMGFR peptide on NTA-Ni SAM chip; hexamer signal divided by 3
[2] = biological target: Histidine tagged PSMGFR peptide (MUC1* extra cellular domain peptide); assay: SPR, Biacore 3000, His-tagged PSMGFR peptide on NTA-Ni SAM chip

Sequence of Histidine tagged PSMGFR peptide (MUC1* extra cellular domain peptide) (peptide, as listed by the source): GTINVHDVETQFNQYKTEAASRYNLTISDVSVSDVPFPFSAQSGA

## NM23-S120G-hexamer (non-refolded soluble-fraction preparation of NM23-H1 S120G) (from UniProt P15531 1-152) (ligand)
[1]
  fold less bound than NM23-S120G-dimer: 12 fold
[2]
  amount of binding (RUs): 100 RU
